From IntAct's records for PubMed 22902366

B1: Secreted protein BARF1 (Epstein-Barr virus (strain B95-8) (HHV-4)), P03228 (parent)
chain: MARFIAQLLLLASCVAAGQAVTAFLGERVTLTSYWRRVSLGPEIEVSWFKLGPGEEQVLIGRMHHDVIFIEWPFRGFFDIHRSANTFFLVVTAANISHDGNYLCRMKLGETEVTKQEHLSVVKPLTLSVHSERSQFPDFSVLTVTCTVNAFPHPHVQWLMPEGVEPAPTAANGGVMKEKDGSLSVAVDLSLPKPWHLPVTCVGKNDKEEAHGVYVSGYLSQ
partner: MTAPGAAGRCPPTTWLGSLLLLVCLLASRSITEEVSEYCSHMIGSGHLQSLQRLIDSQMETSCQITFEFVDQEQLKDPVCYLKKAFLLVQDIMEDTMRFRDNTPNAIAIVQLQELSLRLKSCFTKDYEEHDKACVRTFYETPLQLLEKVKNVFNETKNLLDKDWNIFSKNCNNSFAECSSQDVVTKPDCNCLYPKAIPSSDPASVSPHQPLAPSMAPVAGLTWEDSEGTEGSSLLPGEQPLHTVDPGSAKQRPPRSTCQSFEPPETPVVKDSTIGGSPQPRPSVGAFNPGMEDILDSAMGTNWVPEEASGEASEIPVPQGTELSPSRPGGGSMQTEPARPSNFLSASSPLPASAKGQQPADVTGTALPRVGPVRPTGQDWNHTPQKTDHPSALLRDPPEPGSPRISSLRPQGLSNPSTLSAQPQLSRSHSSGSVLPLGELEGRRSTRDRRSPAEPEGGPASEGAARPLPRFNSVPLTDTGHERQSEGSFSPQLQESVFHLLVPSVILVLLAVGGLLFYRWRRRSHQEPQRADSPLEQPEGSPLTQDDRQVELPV
B2: Macrophage colony-stimulating factor 1 (Homo sapiens), P09603 (parent)
chain: B1 partner

Variants of: B1
Conditions: with csf1_human CSF1, P09603
In the case of Y34A;R36A;R37A;V38A;S39A;R82A;S83A;N85A;T86A, the “effect of a mutation on the interaction” value is reported as “decreasing interaction strength”. Y34A;R36A;R37A;V38A;S39A was tested, and the “effect of a mutation on the interaction” value was “decreasing interaction strength”.

Variants of: B2
Conditions: with csf1r_human CSF1R
For H41A;H47A;Q90A;D91A, the “effect of a mutation on the interaction” value was “decreasing interaction strength”.
